Test results reported in the supplement of paper PMC7877785.
± gives the uncertainty stated by the source.

Test: self-splicing fitness, log relative to wild type (ln ratio); higher = more splicing; Tetrahymena group I intron in knt gene, E. coli kanamycin selection, DiMSum; sequences stand for … in CUCUCU…GGAGGGAAAAGUUAUCAGGCAUGCACCUGGUAGCUAGUCUUUAAACCAAUAGAUUGCAUCGGUUUAAAAGGCAAGACCGUCAAAUUGCGGGAAAGGGGUCAACAGCCGUUCAGUACCAAGUCUCAGGGGAAACUUUGAGAUGGCCUUGCAAAGGGUAUGGUAAUAAGCUGACGGACAUGGUCCUAACCACGCAGCCAAGUCCUAAGUCAACAGAUCUUCUGUUGAUAUGGAUGCAGUUCACAGACUAAAUGUCGGUCGGGGAAGAUGUAUUCUUCUCAUAAGAUAUAGUCGGACCUCUCCUUAAUGGGAGCUAGCGGAUGAAGUGAUGCAACACUGGAGCCGCUGGGAACUAAUUUGUAUGCGAAAGUAUAUUGAUUAGUUUUGGAGUACUCGUGGUCG
Outline: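 Six replicate transformations of E. coli BL21(DE3) with a pET-22b(+) library were grown overnight at 37°C or 30°C. The library randomised all eight P1ex-region intron nucleotides, the intron lying in the knt kanamycin-resistance gene, and plates were LB agar with or without 25 μg/mL kanamycin plus 100 μg/mL carbenicillin, 50 μM IPTG and 0.2% rhamnose. Pooled colonies were amplicon-sequenced on an Illumina HiSeq 2500, and fitness is the DiMSum error-weighted combination of wild-type-normalised replicate fold changes, kanamycin versus none.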

Row | Sequence | self-splicing fitness (ln) (30 °C) | self-splicing fitness (ln) (37 °C)
1 | ACAGAGCAAUAUUACGCUCA | -1.29 ± 0.2 | -1.26 ± 0.18
2 | ACAGAGCAAUAUUACGGCAC | – | -2.62 ± 0.44
3 | ACAGAGCAAUAUUACGGCGG | -3.41 ± 0.26 | -1.98 ± 0.24
4 | ACAGAGCAAUAUUACGGGUU | -2.43 ± 0.1 | -3.08 ± 0.18
5 | ACAGAGCAAUAUUACGGUAC | -3.57 ± 0.2 | -3.02 ± 0.25
6 | ACAGAGCAAUAUUACGUCGA | -3.1 ± 0.3 | -2.73 ± 0.34
7 | ACAGAGCAAUAUUACGUGAC | -3.76 ± 0.24 | -1.6 ± 0.17
8 | ACAGAGCAAUAUUACGUGUG | -2.65 ± 0.12 | -2.99 ± 0.14
9 | ACAGAGCAAUAUUACGUUAA | -3.15 ± 0.15 | -2.21 ± 0.21
10 | ACAGAGCAAUAUUACGUUAC | -3 ± 0.15 | -2.96 ± 0.25
11 | ACAUAGCAAUAUUACGAACG | -1.2 ± 0.17 | -0.114 ± 0.28
12 | ACAUAGCAAUAUUACGAAUA | -2.06 ± 0.28 | -0.539 ± 0.2
13 | ACAUAGCAAUAUUACGACCA | -0.589 ± 0.12 | 0.121 ± 0.14
14 | ACAUAGCAAUAUUACGACGC | -0.172 ± 0.071 | 0.801 ± 0.1
15 | ACAUAGCAAUAUUACGACUU | 0.0662 ± 0.074 | -0.163 ± 0.087
16 | ACAUAGCAAUAUUACGCAAG | -1.9 ± 0.12 | -1.25 ± 0.2
17 | ACAUAGCAAUAUUACGCCCU | -0.862 ± 0.083 | -0.134 ± 0.1
18 | ACAUAGCAAUAUUACGCCGA | -1.38 ± 0.19 | -0.864 ± 0.18
19 | ACAUAGCAAUAUUACGCGGA | -2.07 ± 0.14 | -0.505 ± 0.1
20 | ACAUAGCAAUAUUACGCUAA | -2.26 ± 0.23 | -0.742 ± 0.34
21 | ACAUAGCAAUAUUACGCUCU | -0.768 ± 0.084 | -0.2 ± 0.12
22 | ACAUAGCAAUAUUACGGCUU | -0.628 ± 0.09 | 0.133 ± 0.11
23 | ACAUAGCAAUAUUACGGGGU | -3.67 ± 0.17 | -1.81 ± 0.14
24 | ACAUAGCAAUAUUACGGUAA | -2.88 ± 0.15 | -1.52 ± 0.12

Row | Sequence | self-splicing fitness (ln) (30 °C) | self-splicing fitness (ln) (37 °C)
25 | ACAUAGCAAUAUUACGGUUG | -2.29 ± 0.079 | -1.95 ± 0.1
26 | ACAUAGCAAUAUUACGUAAG | -1.94 ± 0.085 | -1.6 ± 0.12
27 | ACAUAGCAAUAUUACGUCAA | -3.99 ± 0.21 | -1.63 ± 0.11
28 | ACAUAGCAAUAUUACGUCGG | -2.1 ± 0.099 | -1.16 ± 0.1
29 | ACAUAGCAAUAUUACGUCUC | – | -2.01 ± 0.25
30 | ACAUAGCAAUAUUACGUUCC | -2.65 ± 0.23 | -2.1 ± 0.34
31 | ACAUAGCAAUAUUACGUUGU | -3.63 ± 0.15 | -2.78 ± 0.2
32 | ACAUAGCAAUAUUACGUUUC | -3.55 ± 0.23 | -2.84 ± 0.3
33 | ACAUAGCAAUAUUACGUUUG | -2.83 ± 0.12 | -2.51 ± 0.15
34 | ACCAAGCAAUAUUACGAAUG | -3.18 ± 0.1 | -1.78 ± 0.1
35 | ACCAAGCAAUAUUACGACAC | -1.29 ± 0.093 | -1.3 ± 0.13
36 | ACCAAGCAAUAUUACGAUGA | -1.97 ± 0.1 | -1.36 ± 0.11
37 | ACCAAGCAAUAUUACGCAGG | -3.41 ± 0.13 | -2.59 ± 0.13
38 | ACCAAGCAAUAUUACGCCCU | -0.139 ± 0.091 | 0.663 ± 0.14
39 | ACCAAGCAAUAUUACGCCUC | -2.34 ± 0.22 | -0.371 ± 0.18
40 | ACCAAGCAAUAUUACGCUCA | -0.49 ± 0.098 | -0.055 ± 0.11
41 | ACCAAGCAAUAUUACGGCCG | -0.944 ± 0.086 | -0.259 ± 0.11
42 | ACCAAGCAAUAUUACGGCGA | -0.805 ± 0.064 | -0.254 ± 0.072
43 | ACCAAGCAAUAUUACGGCGG | -1.04 ± 0.083 | -0.733 ± 0.11
44 | ACCAAGCAAUAUUACGGGAG | -3.22 ± 0.13 | -2.66 ± 0.14
45 | ACCAAGCAAUAUUACGGGCG | -0.824 ± 0.048 | 0.12 ± 0.068
46 | ACCAAGCAAUAUUACGGGGG | -2.15 ± 0.096 | -2.29 ± 0.14
47 | ACCAAGCAAUAUUACGGUGG | -4.89 ± 0.21 | -2.53 ± 0.14
48 | ACCAAGCAAUAUUACGGUUA | -1.63 ± 0.1 | -1.68 ± 0.096

Row | Sequence | self-splicing fitness (ln) (30 °C) | self-splicing fitness (ln) (37 °C)
49 | ACCAAGCAAUAUUACGGUUC | -3.36 ± 0.15 | -3.46 ± 0.25
50 | ACCAAGCAAUAUUACGGUUU | -3.14 ± 0.11 | -2.08 ± 0.1
51 | ACCAAGCAAUAUUACGUAUC | -3.4 ± 0.1 | -2.34 ± 0.11
52 | ACCAAGCAAUAUUACGUAUU | -3.77 ± 0.14 | -2.07 ± 0.12
53 | ACCAAGCAAUAUUACGUUAA | -3.17 ± 0.18 | -2.46 ± 0.17
54 | ACCAAGCAAUAUUACGUUUG | -4.33 ± 0.16 | -2.43 ± 0.14
55 | ACCCAGCAAUAUUACGAAAA | -1.66 ± 0.097 | -1.83 ± 0.13
56 | ACCCAGCAAUAUUACGACAU | -0.995 ± 0.011 | -0.241 ± 0.032
57 | ACCCAGCAAUAUUACGAGCG | -2.3 ± 0.074 | -0.837 ± 0.091
58 | ACCCAGCAAUAUUACGAGUG | -1.74 ± 0.054 | -0.755 ± 0.058
59 | ACCCAGCAAUAUUACGAUAG | -3.3 ± 0.1 | -1.78 ± 0.1
60 | ACCCAGCAAUAUUACGAUGC | -1.31 ± 0.06 | 0.13 ± 0.073
61 | ACCCAGCAAUAUUACGAUUA | -1.61 ± 0.09 | -1.41 ± 0.082
62 | ACCCAGCAAUAUUACGCCAC | -4.62 ± 0.42 | -1.82 ± 0.31
63 | ACCCAGCAAUAUUACGCCCC | -1.3 ± 0.12 | -0.142 ± 0.14
64 | ACCCAGCAAUAUUACGGGGC | -4.5 ± 0.19 | -2.73 ± 0.14
65 | ACCCAGCAAUAUUACGGGUC | -1.89 ± 0.085 | -2.74 ± 0.19
66 | ACCCAGCAAUAUUACGUCAC | -3.29 ± 0.14 | -2.18 ± 0.15
67 | ACCCAGCAAUAUUACGUCCU | -0.73 ± 0.075 | -0.51 ± 0.089
68 | ACCCAGCAAUAUUACGUCUU | -1.25 ± 0.063 | -0.446 ± 0.075
69 | ACCCAGCAAUAUUACGUGAA | -0.191 ± 0.041 | 0.202 ± 0.063
70 | ACCCAGCAAUAUUACGUGUG | -2.63 ± 0.062 | -1.07 ± 0.064
71 | ACCGAGCAAUAUUACGAAAG | -3.42 ± 0.37 | -1.68 ± 0.17
72 | ACCGAGCAAUAUUACGAACG | -2.36 ± 0.2 | -0.527 ± 0.22

Row | Sequence | self-splicing fitness (ln) (30 °C) | self-splicing fitness (ln) (37 °C)
73 | ACCGAGCAAUAUUACGAAUU | -4.54 ± 0.39 | -1.89 ± 0.21
74 | ACCGAGCAAUAUUACGACCA | – | -0.694 ± 0.33
75 | ACCGAGCAAUAUUACGACCU | -1.75 ± 0.11 | -0.53 ± 0.12
76 | ACCGAGCAAUAUUACGAGGC | -4.59 ± 0.29 | -3.23 ± 0.33
77 | ACCGAGCAAUAUUACGAUAC | -4.32 ± 0.36 | -2.09 ± 0.27
78 | ACCGAGCAAUAUUACGCACA | -2.47 ± 0.11 | -1.67 ± 0.11
79 | ACCGAGCAAUAUUACGCCCA | -1.68 ± 0.29 | -3.03 ± 0.3
80 | ACCGAGCAAUAUUACGCCUC | -2.87 ± 0.19 | -2.36 ± 0.22
81 | ACCGAGCAAUAUUACGCGCU | -2.81 ± 0.17 | -1.19 ± 0.19
82 | ACCGAGCAAUAUUACGCUAG | -2.62 ± 0.22 | -1.44 ± 0.21
83 | ACCGAGCAAUAUUACGGAGG | -3.01 ± 0.2 | -2.72 ± 0.23
84 | ACCGAGCAAUAUUACGGAUA | -2.8 ± 0.35 | -2.33 ± 0.27
85 | ACCGAGCAAUAUUACGGCUC | -4.07 ± 0.39 | -1.54 ± 0.35
86 | ACCGAGCAAUAUUACGGCUU | -2.63 ± 0.12 | -1.14 ± 0.13
87 | ACCGAGCAAUAUUACGGGUA | -2.6 ± 0.16 | -0.706 ± 0.13
88 | ACCGAGCAAUAUUACGUCGU | -3.09 ± 0.13 | -1.04 ± 0.11
89 | ACCGAGCAAUAUUACGUGAG | -2.27 ± 0.091 | -0.997 ± 0.091
90 | ACCGAGCAAUAUUACGUUAA | -3 ± 0.13 | -2.7 ± 0.14
91 | ACCGAGCAAUAUUACGUUAG | -4.03 ± 0.15 | -2.65 ± 0.15
92 | ACCGAGCAAUAUUACGUUGU | -3.67 ± 0.17 | -1.5 ± 0.12
93 | ACCUAGCAAUAUUACGAAGU | -3.53 ± 0.19 | -2.72 ± 0.19
94 | ACCUAGCAAUAUUACGACUC | -0.748 ± 0.088 | -0.405 ± 0.098
95 | ACCUAGCAAUAUUACGAGGG | -3.45 ± 0.17 | -1.4 ± 0.12
96 | ACCUAGCAAUAUUACGAUGA | -1.21 ± 0.091 | -0.609 ± 0.1
